Test results published in the supplement of paper PMC5998384.

Experiments:
HeLa Kyoto [1] = assay: thermal stability score vs G1/S (z-score of summed log2 fold changes over temperatures); higher = more thermally stable than in G1/S
HeLa Kyoto [2] = assay: solubility in G1/S (NP-40 vs SDS abundance) (log2 ratio); higher = more soluble; settings: cell cycle stage: G1/S
HeLa Kyoto [3] = assay: solubility change mitosis vs G1/S (difference of NP-40 vs SDS log2 ratios) (log2 ratio difference); higher = more soluble in mitosis
HeLa Kyoto [4] = assay: melting temperature (median over replicates), in situ; higher = more thermally stable
[5] = cell cycle stage: early G1 (4.5 h after nocodazole release)
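Throughout, for melting temperature (median over replicates), in situ: HeLa Kyoto cells synchronized by double thymidine or nocodazole block, proteins quantified by TMT10plex mass spectrometry, three independent biological replicates.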
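Throughout, for solubility change mitosis vs G1/S (difference of NP-40 vs SDS log2 ratios): synchronized HeLa Kyoto cells (double thymidine block for G1/S, nocodazole release for mitosis), protein amounts in NP-40 versus SDS lysates quantified by mass spectrometry, three biological replicates.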
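Throughout, for solubility in G1/S (NP-40 vs SDS abundance): HeLa Kyoto cells arrested at G1/S by double thymidine block, proteins quantified by TMT10plex mass spectrometry in mild NP-40 versus SDS extracts, three biological replicates.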
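Throughout, for thermal stability score vs G1/S (z-score of summed log2 fold changes over temperatures): synchronized HeLa Kyoto cells, proteins quantified by TMT10plex mass spectrometry, three biological replicates, mitosis taken 0.5 h after nocodazole release, G1/S directly after double thymidine block.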

MPSKFSCRQLREAGQCFESFLVVRGLDMETDRERLRTIYNRDFKISFGTPAPGFSSMLYGMKIANLAYVTKTRVRFFRLDRWADVRFPEKRRMKLGSDISKHHKSLLAKIFYDRAEYLHGKHGVDVEVQGPHEARDGQLLIRLDLNRKEVLTLRLRNGGTQSVTLTHLFPLCRTPQFAFYNEDQELPCPLGPGECYELHVHCKTSFVGYFPATVLWELLGPGESGSEGAGTFYIARFLAAVAHSPLAAQLKPMTPFKRTRITGNPVVTNRIEEGERPDRAKGYDLELSMALGTYYPPPRLRQLLPMLLQGTSIFTAPKEIAEIKAQLETALKWRNYEVKLRLLLHLEELQMEHDIRHYDLESVPMTWDPVDQNPRLLTLEVPGVTESRPSVLRGDHLFALLSSETHQEDPITYKGFVHKVELDRVKLSFSMSLLSRFVDGLTFKVNFTFNRQPLRVQHRALELTGRWLLWPMLFPVAPRDVPLLPSDVKLKLYDRSLESNPEQLQAMRHIVTGTTRPAPYIIFGPPGTGKTVTLVEAIKQVVKHLPKAHILACAPSNSGADLLCQRLRVHLPSSIYRLLAPSRDIRMVPEDIKPCCNWDAKKGEYVFPAKKKLQEYRVLITTLITAGRLVSAQFPIDHFTHIFIDEAGHCMEPESLVAIAGLMEVKETGDPGGQLVLAGDPRQLGPVLRSPLTQKHGLGYSLLERLLTYNSLYKKGPDGYDPQFITKLLRNYRSHPTILDIPNQLYYEGELQACADVVDRERFCRWAGLPRQGFPIIFHGVMGKDEREGNSPSFFNPEEAATVTSYLKLLLAPSSKKGKARLSPRSVGVISPYRKQVEKIRYCITKLDRELRGLDDIKDLKVGSVEEFQGQERSVILISTVRSSQSFVQLDLDFNLGFLKNPKRFNVAVTRAKALLIIVGNPLLLGHDPDWKVFLEFCKENGGYTGCPFPAKLDLQQGQNLLQGLSKLSPSTSGPHSHDYLPQEREGEGGLSLQVEPEWRNEL [MOV10]
thermal stability score (HeLa Kyoto [1]; [5]): -0.801 | thermal stability score (HeLa Kyoto [1]; cell cycle stage: mitosis): -2.06 | solubility in G1/S (log2) (HeLa Kyoto [2]): -0.355 | solubility change mitosis (log2) (HeLa Kyoto [3]): -0.141 | melting temperature (HeLa Kyoto [4]; cell cycle stage: G1/S): 52.9 °C | melting temperature (HeLa Kyoto [4]; cell cycle stage: mitosis): 51.1 °C

MAEGGAADLDTQRSDIATLLKTSLRKGDTWYLVDSRWFKQWKKYVGFDSWDKYQMGDQNVYPGPIDNSGLLKDGDAQSLKEHLIDELDYILLPTEGWNKLVSWYTLMEGQEPIARKVVEQGMFVKHCKVEVYLTELKLCENGNMNNVVTRRFSKADTIDTIEKEIRKIFSIPDEKETRLWNKYMSNTFEPLNKPDSTIQDAGLYQGQVLVIEQKNEDGTWPRGPSTPKSPGASNFSTLPKISPSSLSNNYNNMNNRNVKNSNYCLPSYTAYKNYDYSEPGRNNEQPGLCGLSNLGNTCFMNSAIQCLSNTPPLTEYFLNDKYQEELNFDNPLGMRGEIAKSYAELIKQMWSGKFSYVTPRAFKTQVGRFAPQFSGYQQQDCQELLAFLLDGLHEDLNRIRKKPYIQLKDADGRPDKVVAEEAWENHLKRNDSIIVDIFHGLFKSTLVCPECAKISVTFDPFCYLTLPLPMKKERTLEVYLVRMDPLTKPMQYKVVVPKIGNILDLCTALSALSGIPADKMIVTDIYNHRFHRIFAMDENLSSIMERDDIYVFEININRTEDTEHVIIPVCLREKFRHSSYTHHTGSSLFGQPFLMAVPRNNTEDKLYNLLLLRMCRYVKISTETEETEGSLHCCKDQNINGNGPNGIHEEGSPSEMETDEPDDESSQDQELPSENENSQSEDSVGGDNDSENGLCTEDTCKGQLTGHKKRLFTFQFNNLGNTDINYIKDDTRHIRFDDRQLRLDERSFLALDWDPDLKKRYFDENAAEDFEKHESVEYKPPKKPFVKLKDCIELFTTKEKLGAEDPWYCPNCKEHQQATKKLDLWSLPPVLVVHLKRFSYSRYMRDKLDTLVDFPINDLDMSEFLINPNAGPCRYNLIAVSNHYGGMGGGHYTAFAKNKDDGKWYYFDDSSVSTASEDQIVSKAAYVLFYQRQDTFSGTGFFPLDRETKGASAATGIPLESDEDSNDNDNDIENENCMHTN [USP15]
thermal stability score (HeLa Kyoto [1]; [5]): -0.274 | thermal stability score (HeLa Kyoto [1]; cell cycle stage: mitosis): 0.549 | solubility in G1/S (log2) (HeLa Kyoto [2]): 0.00479 | solubility change mitosis (log2) (HeLa Kyoto [3]): -0.118 | melting temperature (HeLa Kyoto [4]; cell cycle stage: G1/S): 49.8 °C | melting temperature (HeLa Kyoto [4]; cell cycle stage: mitosis): 49.9 °C

MSFVAGVIRRLDETVVNRIAAGEVIQRPANAIKEMIENCLDAKSTSIQVIVKEGGLKLIQIQDNGTGIRKEDLDIVCERFTTSKLQSFEDLASISTYGFRGEALASISHVAHVTITTKTADGKCAYRASYSDGKLKAPPKPCAGNQGTQITVEDLFYNIATRRKALKNPSEEYGKILEVVGRYSVHNAGISFSVKKQGETVADVRTLPNASTVDNIRSIFGNAVSRELIEIGCEDKTLAFKMNGYISNANYSVKKCIFLLFINHRLVESTSLRKAIETVYAAYLPKNTHPFLYLSLEISPQNVDVNVHPTKHEVHFLHEESILERVQQHIESKLLGSNSSRMYFTQTLLPGLAGPSGEMVKSTTSLTSSSTSGSSDKVYAHQMVRTDSREQKLDAFLQPLSKPLSSQPQAIVTEDKTDISSGRARQQDEEMLELPAPAEVAAKNQSLEGDTTKGTSEMSEKRGPTSSNPRKRHREDSDVEMVEDDSRKEMTAACTPRRRIINLTSVLSLQEEINEQGHEVLREMLHNHSFVGCVNPQWALAQHQTKLYLLNTTKLSEELFYQILIYDFANFGVLRLSEPAPLFDLAMLALDSPESGWTEEDGPKEGLAEYIVEFLKKKAEMLADYFSLEIDEEGNLIGLPLLIDNYVPPLEGLPIFILRLATEVNWDEEKECFESLSKECAMFYSIRKQYISEESTLSGQQSEVPGSIPNSWKWTVEHIVYKALRSHILPPKHFTEDGNILQLANLPDLYKVFERC [MLH1]
thermal stability score (HeLa Kyoto [1]; [5]): 3.37 | thermal stability score (HeLa Kyoto [1]; cell cycle stage: mitosis): 5.51 | solubility in G1/S (log2) (HeLa Kyoto [2]): -0.0862 | solubility change mitosis (log2) (HeLa Kyoto [3]): -0.21 | melting temperature (HeLa Kyoto [4]; cell cycle stage: G1/S): 46.3 °C | melting temperature (HeLa Kyoto [4]; cell cycle stage: mitosis): 48.8 °C

MSAAIAALAASYGSGSGSESDSDSESSRCPLPAADSLMHLTKSPSSKPSLAVAVDSAPEVAVKEDLETGVHLDPAVKEVQYNPTYETMFAPEFGPENPFRTQQMAAPRNMLSGYAEPAHINDFMFEQQRRTFATYGYALDPSLDNHQVSAKYIGSVEEAEKNQGLTVFETGQKKTEKRKKFKENDASNIDGFLGPWAKYVDEKDVAKPSEEEQKELDEITAKRQKKGKQEEEKPGEEKTILHVKEMYDYQGRSYLHIPQDVGVNLRSTMPPEKCYLPKKQIHVWSGHTKGVSAVRLFPLSGHLLLSCSMDCKIKLWEVYGERRCLRTFIGHSKAVRDICFNTAGTQFLSAAYDRYLKLWDTETGQCISRFTNRKVPYCVKFNPDEDKQNLFVAGMSDKKIVQWDIRSGEIVQEYDRHLGAVNTIVFVDENRRFVSTSDDKSLRVWEWDIPVDFKYIAEPSMHSMPAVTLSPNGKWLACQSMDNQILIFGAQNRFRLNKKKIFKGHMVAGYACQVDFSPDMSYVISGDGNGKLNIWDWKTTKLYSRFKAHDKVCIGAVWHPHETSKVITCGWDGLIKLWD [CDC40]
thermal stability score (HeLa Kyoto [1]; [5]): -1 | thermal stability score (HeLa Kyoto [1]; cell cycle stage: mitosis): -0.655 | solubility in G1/S (log2) (HeLa Kyoto [2]): -0.918 | solubility change mitosis (log2) (HeLa Kyoto [3]): 0.525 | melting temperature (HeLa Kyoto [4]; cell cycle stage: G1/S): 53.1 °C | melting temperature (HeLa Kyoto [4]; cell cycle stage: mitosis): 51.9 °C

MEKGLTLPQDCRDFVHSLKMRSKYALFLVFVVIVFVFIEKENKIISRVSDKLKQIPQALADANSTDPALILAENASLLSLSELDSAFSQLQSRLRNLSLQLGVEPAMEAAGEEEEEQRKEEEPPRPAVAGPRRHVLLMATTRTGSSFVGEFFNQQGNIFYLFEPLWHIERTVSFEPGGANAAGSALVYRDVLKQLFLCDLYVLEHFITPLPEDHLTQFMFRRGSSRSLCEDPVCTPFVKKVFEKYHCKNRRCGPLNVTLAAEACRRKEHMALKAVRIRQLEFLQPLAEDPRLDLRVIQLVRDPRAVLASRMVAFAGKYKTWKKWLDDEGQDGLREEEVQRLRGNCESIRLSAELGLRQPAWLRGRYMLVRYEDVARGPLQKAREMYRFAGIPLTPQVEDWIQKNTQAAHDGSGIYSTQKNSSEQFEKWRFSMPFKLAQVVQAACGPAMRLFGYKLARDAAALTNRSVSLLEERGTFWVT [CHST3]
thermal stability score (HeLa Kyoto [1]; [5]): -1.54 | thermal stability score (HeLa Kyoto [1]; cell cycle stage: mitosis): -0.213 | solubility in G1/S (log2) (HeLa Kyoto [2]): 0.15 | solubility change mitosis (log2) (HeLa Kyoto [3]): -0.0403 | melting temperature (HeLa Kyoto [4]; cell cycle stage: G1/S): 55.3 °C | melting temperature (HeLa Kyoto [4]; cell cycle stage: mitosis): 53.5 °C

MLVPLAKLSCLAYQCFHALKIKKNYLPLCATRWSSTSTVPRITTHYTIYPRDKDKRWEGVNMERFAEEADVVIVGAGPAGLSAAVRLKQLAVAHEKDIRVCLVEKAAQIGAHTLSGACLDPGAFKELFPDWKEKGAPLNTPVTEDRFGILTEKYRIPVPILPGLPMNNHGNYIVRLGHLVSWMGEQAEALGVEVYPGYAAAEVLFHDDGSVKGIATNDVGIQKDGAPKATFERGLELHAKVTIFAEGCHGHLAKQLYKKFDLRANCEPQTYGIGLKELWVIDEKNWKPGRVDHTVGWPLDRHTYGGSFLYHLNEGEPLVALGLVVGLDYQNPYLSPFREFQRWKHHPSIRPTLEGGKRIAYGARALNEGGFQSIPKLTFPGGLLIGCSPGFMNVPKIKGTHTAMKSGILAAESIFNQLTSENLQSKTIGLHVTEYEDNLKNSWVWKELYSVRNIRPSCHGVLGVYGGMIYTGIFYWILRGMEPWTLKHKGSDFERLKPAKDCTPIEYPKPDGQISFDLLSSVALSGTNHEHDQPAHLTLRDDSIPVNRNLSIYDGPEQRFCPAGVYEFVPVEQGDGFRLQINAQNCVHCKTCDIKDPSQNINWVVPEGGGGPAYNGM [ETFDH]
thermal stability score (HeLa Kyoto [1]; [5]): -0.885 | thermal stability score (HeLa Kyoto [1]; cell cycle stage: mitosis): -1.65 | solubility in G1/S (log2) (HeLa Kyoto [2]): 0.107 | solubility change mitosis (log2) (HeLa Kyoto [3]): -0.184 | melting temperature (HeLa Kyoto [4]; cell cycle stage: G1/S): 54.4 °C | melting temperature (HeLa Kyoto [4]; cell cycle stage: mitosis): 53.8 °C
